Results on five molecules are retold here after patent publication US7794711B2, “Agent for treating chondroma and chondrosarcoma” (Chugai Seiyaku Kabushiki Kaisha, priority 2002, dated 2010).

Test [1] relates to Human chondrosarcoma cell HTB-94. In words: Viability of cells (Premix WST-1 Cell Proliferation Assay System). It is filed as cell-based. The conditions noted are these: 20 μM, 2 hours before the addition of anti-PTHrP MoAb (FIG. 2). On the procedure: Human chondrosarcoma cell HTB-94 (ATCC) was suspended in Dulbecco's Modified Eagle's Medium (DMEM) containing 10% FBS, L-glutamine, penicillin-streptomycin (all are available from GIBCO-BRL), and was cultured and proliferated at 37° C. under 5% CO2 wet condition.
That is, reduction ratio of tetrazolium salt (WST-1) by viable cells was determined from the increase in OD450, and it was considered as the index of the number of viable cells.

For test [2], the system named is HTB-94 cells. Nature of the test: DNA fragmentation assay. It is filed as cell-based, human. The settings on record: two days. On the procedure:
That is, the cells were dissolved in a dissolution buffer, DNA was isolated, extracted with an organic solvent and ethanol precipitation was carried out. The precipitated DNA was centrifuged (12,000 g, 10 min) and then washed with 80% ethanol, and dissolved in 30 μl of TE buffer. Each sample (10 μl) was subjected to electrophoresis on a 1.2% agarose gel, and stained with ethidium bromide.

The subject of test [3] is HTB-94 cells. Nature of the test: TUNEL staining. The conditions noted are these: two days. It is filed as cell-based, human. On the procedure:
TUNEL staining was performed using Apoptag Peroxidase Kit (Intergen Company). […] Subsequently, the cells were incubated with a TdT reaction mixture (TdT solution+[…] and dATP) at 37° C. for 60 minutes, and further incubated with peroxidase conjugated anti-dioxygenin antibody at room temperature for 30 minutes. The cells were stained with DAB and then counterstained with Mayer's hematoxylin and microscopically observed at 200-fold, 400-fold and 600-fold magnification.

Test [4] deals with HTB-94 cells. Nature of the test: RT-PCR. The settings on record: 100 μg/ml, two days, vs control. The class given is cell-based, human. On the procedure:
PCR of cDNA was performed using Ready-to-Go PCR beads (Pharmacia) and primers for human Bcl-2, Bax, Ihh, ColX (α1) and β-actin amplification (12.5 pmol(s) each).
Amplification was performed using Perkin-Elmer/Cetus DNA Thermal Cycler (TAKARA SHUZO) on the conditions of 30 cycles each of 94° C., 0.5 min; 55° C., 0.5 min; 72° C., 0.5 min and last extension reaction at 72° C. for 7 minutes.
Electrophoresis of the obtained PCR product (10 μL) was carried out on a 4% agarose gel, and stained and observed with ethidium bromide.

In test [5] the test system is HTB-94 cells. In words: Immunocytochemistry using anti-collagen type X antibody. The conditions noted are these: particularly at high concentration, seven days. The class given is cell-based, human. On the procedure: Immunocytochemistry was performed by streptavidin-peroxidase method using histofine SAB-PO kit ([…]). […] Subsequently, the cells were transferred to 3% H2O2 methanol to block endogenous peroxidase activity, washed with PBS (pH 7.2), and then blocked with PBS containing normal 10% serum (secondary antibody) of the congeneric origin in order to make the background minimum and incubated with anti-collagen type X antibody (primary antibody) at room temperature for 2 hours. Afterwards the cells were washed with PBS, incubated with the secondary antibody at room temperature in a wet chamber for 20 minutes, and incubated with peroxidase conjugated streptavidin ([…]) for 20 minutes under the same conditions. Finally, coloring reaction was performed with 3,3-diaminobenzidine tetrahydrochloride (DAB) reagent (Dojindo). The cells were counterstained with hematoxylin and microscopically observed at 200-fold and 400-fold magnification.

For test [6], the target named is T1, PTHrP (1-34) (Homo sapiens, UniProt P12272). Nature of the test: Screening of hybridomas by solid phase RIA of culture supernatant. It is filed as binding. Further details: purchased Peninsula. The settings on record: hybridoma culture supernatant. As to the method:
Hybridomas #23-57-154 and #23-57-137-1 which produce monoclonal antibody to human PTHrP (1-34) were produced as follows (Sato, K. et al., J. Bone Miner. Res. 8, 849-860, 1993). The amino acid sequence of human PTHrP (1-34) is shown in the SEQ ID No. 75.
Screening of hybridomas was performed by measuring and selecting the existence of a PTHrP recognizing antibody by applying solid phase RIA method to the culture supernatant of the wells where growth was recognized in HAT culture medium. Hybridomas were collected from the wells where binding ability with an antibody was recognized, suspended to the culture medium prepared by adding OPI-supplement (Sigma) to the RPMI-1640 culture medium containing FCS 15%, and the hybridomas was simplified by the limiting dilution method.

Test [7] has as its system HTB-94 cells. In words: Western blotting of HTB-94 cell lysates. It is filed as cell-based, human. On the procedure: In the experiment with regard to the following collagen type-X, the cells were treated by anti-PTHrP MoAb for further five days (for total seven days). All the cell lysates (50 μg as protein) of the above-mentioned cells were separated by SDS-PAGE using 12% gel and blotted on a nitrocellulose film (Bio-Rad Laboratories). The blocked film was incubated together with an anti-procaspase-3 antibody (Wako Pure Chemical) diluted to 1/100, an anti-PARP antibody, an anti-Bcl-2 antibody and an anti-Bax antibody (both from Santa Cruz Biotechnology), an anti-collagen type X antibody (Calbiochem-Novabiochem Corporation) and a peroxidase conjugated secondary antibody (Amersham) diluted to 1/1000.
Here, PARP (poly(ADP-ribose) polymerase) is an enzyme important for the survival in a cell, and caspase-3 causes cleavage of this PARP.
Detection was performed using ECL Western blotting detection system (Amersham). Each blot was further re-detected by ECL using anti-o-actin antibody (Santa Cruz Biotechnology) and the peroxidase conjugated secondary antibody.
(In general: In western blotting, separated proteins are transferred to a membrane and probed.)

Test [8] concerns the target T1, PTHrP (1-34). Nature of the test: ELISA measurement of antigen binding ability. Set-up: coated with 100 μl of human PTHrP(1-34) (Peptide Research Institute); purchased Peptide Research Institute. The conditions noted are these: expressed in COS-7 cells; H chain humanized version a. As to the method: The ELISA plate for antigen binding measurement was prepared as follows. Each well of a 96 well plate for ELISA was coated with 100 μl of human PTHrP(1-34) (Peptide Research Institute) adjusted to 1 μg/ml concentration by the coating buffer. […] After the plate was incubated at room temperature and washed with PBS-Tween20, 100 μl of alkaline phosphatase (TAGO) conjugated goat anti-man IgG antibody was added. After the plate was incubated at room temperature and washed with PBS-Tween20, 1 mg/ml of a substrate solution (Sigma104, p-nitrophenylphosphate, SIGMA) was added, and, next, 405 nm absorption was measured with a micro plate reader (Bio Rad).
The ELISA plate for antigen binding measurement was prepared as follows. Each well of a 96 well plate for ELISA was coated with 100 μl of human PTHrP(1-34) adjusted to 1 μg/ml concentration by the coating buffer. After blocking with 200 μl of the dilution buffer, the culture supernatant of the COS-7 cells in which hybrid antibody or humanized antibody was expressed or the purified hybrid antibody or the humanized antibody was stepwise diluted and added to each well. After the plate was incubated at room temperature and washed with PBS-Tween20, 100 μl of alkaline phosphatase (TAGO) conjugated goat anti-man IgG antibody was added. After the plate was incubated at room temperature and washed with PBS-Tween20, 1 mg/ml of a substrate solution (Sigma104, p-nitrophenylphosphate, SIGMA) was added, and 405 nm absorption was then measured on a micro plate reader (Bio Rad).
For orientation: In an ELISA, binding on a coated surface is turned into a signal by an enzyme label.

Where [9] appears, read: 0, 10, 30, 50, 100, and 200 μg/ml, two days.

Positions count from the first letter of the chain named.

Turning to DEVD-CHO, in test [1], the “effect of caspase-3 inhibitor on the effect of anti-PTHrP MoAb on cell viability” value is reported as “inhibited the effect of this anti-PTHrP MoAb”.

B1: anti-PTHrP MoAb: mouse monoclonal antibody to human PTHrP (1-34) prepared from hybridoma #23-57-137-1 (FERM BP-5631) (antibody, V domains shown)
VH: EVQLVESGGDLVKPGGSLKLSCAASGFTFSSYGMSWIRQTPDKRLEWVATISSGGSYTYYPDSVKGRFTISRDNAKNTLYLQMSSLKSEDTAMFYCARQTTMTYFAYWGQGTLVTVSA
VL: QLVLTQSSSASFSLGASAKLTCTLSSQHSTYTIEWYQQQPLKPPKYVMDLKQDGSHSTGDGIPDRFSGSSSGADRYLSISNIQPEDEAMYICGVGDTIKEQFVYVFGGGTKVTVLGQP
For the molecule B1, the “fragmentation of DNA in nucleosome specific to apoptosis” value in the test on HTB-94 cells [2] (10 μg/ml) is “observed”. In the test on HTB-94 cells [2] (200 μg/ml), the “fragmentation of DNA in nucleosome specific to apoptosis” value is reported as “observed”. The “frequency of appearance of cells in apoptosis (stained brown)” value with HTB-94 cells [3] (0, 10, 100, or 200 μg/ml) is reported as “increased depending on the concentration”. Further, in the test on HTB-94 cells [3] (after treatment), the “morphological changes characteristic of apoptosis” value was “contraction and round outline were also recognized”. Moreover, in the test on HTB-94 cells [4], the “amount of expression of Bax (mRNA)” value is listed as “increased” and the “amount of expression of Bcl-2 (mRNA)” value is reported as “decreased”. Moreover, the “cell morphology (differentiation)” value with HTB-94 cells [5] is reported as “a number of cells which roundly expanded were observed”. The “binding ability with PTHrP (1-34)” value in the test with PTHrP (1-34) [6] is recorded as “strong binding ability”. In addition, in the test on HTB-94 cells [7] (setting [9]), the “85 kDa fragment of PARP” value is reported as “increased depending on the concentration”, the “Bax (protein)” value is listed as “increased as the concentration of anti-PTHrP MoAb increased” and the “Bcl-2 (protein)” value was “decreased as the concentration of anti-PTHrP MoAb increased”. In the test on HTB-94 cells [7] (100 μg/ml, two days), the “procaspase-3 (35 kDa)” value was “decreased”. Further, the “procaspase-3 (35 kDa)” value in the test on HTB-94 cells [7] (200 μg/ml, two days) is “decreased”. The “anti-PTHrP MoAb concentration at maximum collagen type X” value in the test on HTB-94 cells [7] (total seven days) worked out at 50 µg/mL. Moreover, in the test on HTB-94 cells [7] (treated vs untreated cells, total seven days), the “collagen type X (protein)” value is reported as “more collagen type X in the cells treated with Anti-PTHrP MoAb than in untreated cells”.

B2: m/hMBC1Laλ: hybrid antibody: L chain mouse FR1, 2/human FR3, 4 (version a); humanized H chain (antibody, V domains shown)
VH: QVQLVESGGGVVQPGRSLRLSCAASGFTFSSYGMSWVRQAPGKGLEWVATISSGGSYTYYPDSVKGRFTISRDNSKNTLYLQMNSLRAEDTAVYYCARQTTMTYFAYWGQGTLVTVSS
VL: QLVLTQSSSASFSLGASAKLTCTLSSQHSTYTIEWYQQQPLKPPKYVMDLKQDGSHSTGDGIPDRFSGSSSGAERYLTISSLQSEDEADYYCGVGDTIKEQFVYVFGGGTKLTVL
In the case of B2, the “PTHrP binding ability compared with chimeric antibody” value with PTHrP (1-34) [8] is “equivalent to chimera #23-57-137-1 antibody”.

B3: m/hMBC1Ldλ: hybrid antibody: L chain mouse FR1, 2/human FR3, 4 (version d, 87 isoleucine); humanized H chain (antibody, V domains shown)
VH: B2 VH
VL: B2 VL with Y91I
Regarding B3, the “PTHrP binding ability compared with chimeric antibody” value with PTHrP (1-34) [8] was “equivalent to chimera #23-57-137-1 antibody”.

B4: hmmMBC1L(λ): hybrid antibody: L chain human FR1/mouse FR2, 3, 4; humanized H chain (antibody, V domains shown)
VH: B2 VH
VL: QLVLTQSPSASASLGASVKLTCTLSSQHSTYTIEWYQQQPLKPPKYVMDLKQDGSHSTGDGIPDRFSGSSSGADRYLSISNIQPEDEAMYICGVGDTIKEQFVYVFGGGTKVTVL
For the molecule B4, in the test with PTHrP (1-34) [8], the “PTHrP binding ability compared with chimeric antibody” value is given as “equivalent to chimera #23-57-137-1 antibody”.
